{
  "source": "paper PMC4615246",
  "about": "(Nucleus, 2015)",
  "binders": {"B1": {"name": "Nup85 (endogenous) (natural protein)", "chain": "MEELDGEPTVTLIPGVNSKKNQMYFDWGPGEMLVCETSFNKKEKSEMVPSCPFIYIIRKDVDVYSQILRKLFNESHGIFLGLQRIDEELTGKSRKSQLVRVSKNYRSVIRACMEEMHQVAIAAKDPANGRQFSSQVSILSAMELIWNLCEILFIEVAPAGPLLLHLLDWVRLHVCEVDSLSADVLGSENPSKHDSFWNLVTILVLQGRLDEARQMLSKEADASPASAGICRIMGDLMRTMPILSPGNTQTLTELELKWQHWHEECERYLQDSTFATSPHLESLLKIMLGDEAALLEQKELLSNWYHFLVTRLLYSNPTVKPIDLHYYAQSSLDLFLGGESSPEPLDNILLAAFEFDIHQVIKECSIALSNWWFVAHLTDLLDHCKLLQSHNLYFGSNMREFLLLEYASGLFAHPSLWQLGVDYFDYCPELGRVSLELHIERIPLNTEQKALKVLRICEQRQMTEQVRSICKILAMKAVRNNRLGSALSWSIRAKDAAFATLVSDRFLRDYCERGCFSDLDLIDNLGPAMMLSDRLTFLGKYREFHRMYGEKRFADAASLLLSLMTSRIAPRSFWMTLLTDALPLLEQKQVIFSAEQTYELMRCLEDLTSRRPVHGESDTEQLQDDDIETTKVEMLRLSLARNLARAIIREGSLEGS"}},
  "assay_in_all_cases": "LacI/LacO array recruitment in cells",
  "key": {"[1]": {"biological_target": "T1, LacI-CFP-Nup133 (human, UniProt Q8WUM0 1-1156)", "T1 sequence": "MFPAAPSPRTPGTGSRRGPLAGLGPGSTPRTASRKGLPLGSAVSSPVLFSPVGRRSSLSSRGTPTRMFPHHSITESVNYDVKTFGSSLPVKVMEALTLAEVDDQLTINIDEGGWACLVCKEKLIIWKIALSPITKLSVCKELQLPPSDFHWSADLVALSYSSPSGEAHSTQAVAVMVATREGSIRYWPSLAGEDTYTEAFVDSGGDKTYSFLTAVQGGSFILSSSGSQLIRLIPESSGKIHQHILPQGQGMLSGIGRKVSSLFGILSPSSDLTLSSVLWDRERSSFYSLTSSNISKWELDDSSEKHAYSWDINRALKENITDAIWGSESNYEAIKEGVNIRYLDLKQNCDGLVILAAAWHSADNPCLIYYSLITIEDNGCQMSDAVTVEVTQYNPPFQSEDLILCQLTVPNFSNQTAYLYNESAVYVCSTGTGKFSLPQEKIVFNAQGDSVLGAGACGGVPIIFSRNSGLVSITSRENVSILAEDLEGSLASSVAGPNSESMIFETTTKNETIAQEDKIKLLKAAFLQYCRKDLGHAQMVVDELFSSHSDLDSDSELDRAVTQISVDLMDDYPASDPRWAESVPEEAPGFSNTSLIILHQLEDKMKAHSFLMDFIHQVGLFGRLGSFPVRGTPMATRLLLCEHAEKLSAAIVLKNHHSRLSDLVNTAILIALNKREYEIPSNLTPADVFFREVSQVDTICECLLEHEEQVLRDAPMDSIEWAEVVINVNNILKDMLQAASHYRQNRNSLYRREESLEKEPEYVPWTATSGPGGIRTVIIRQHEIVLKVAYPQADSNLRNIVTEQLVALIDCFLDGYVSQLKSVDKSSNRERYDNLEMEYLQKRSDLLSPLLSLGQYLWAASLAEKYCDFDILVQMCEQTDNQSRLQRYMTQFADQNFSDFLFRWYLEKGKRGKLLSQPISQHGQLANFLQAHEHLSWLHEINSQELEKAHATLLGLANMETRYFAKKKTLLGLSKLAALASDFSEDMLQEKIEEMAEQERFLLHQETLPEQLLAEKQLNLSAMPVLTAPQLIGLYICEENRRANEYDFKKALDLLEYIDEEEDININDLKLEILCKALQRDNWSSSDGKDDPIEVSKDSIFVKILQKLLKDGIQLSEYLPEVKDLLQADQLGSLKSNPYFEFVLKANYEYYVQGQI"}, "[2]": {"biological_target": "T2, LacI-CFP-Nup107 (human, UniProt P57740 1-925)", "T2 sequence": "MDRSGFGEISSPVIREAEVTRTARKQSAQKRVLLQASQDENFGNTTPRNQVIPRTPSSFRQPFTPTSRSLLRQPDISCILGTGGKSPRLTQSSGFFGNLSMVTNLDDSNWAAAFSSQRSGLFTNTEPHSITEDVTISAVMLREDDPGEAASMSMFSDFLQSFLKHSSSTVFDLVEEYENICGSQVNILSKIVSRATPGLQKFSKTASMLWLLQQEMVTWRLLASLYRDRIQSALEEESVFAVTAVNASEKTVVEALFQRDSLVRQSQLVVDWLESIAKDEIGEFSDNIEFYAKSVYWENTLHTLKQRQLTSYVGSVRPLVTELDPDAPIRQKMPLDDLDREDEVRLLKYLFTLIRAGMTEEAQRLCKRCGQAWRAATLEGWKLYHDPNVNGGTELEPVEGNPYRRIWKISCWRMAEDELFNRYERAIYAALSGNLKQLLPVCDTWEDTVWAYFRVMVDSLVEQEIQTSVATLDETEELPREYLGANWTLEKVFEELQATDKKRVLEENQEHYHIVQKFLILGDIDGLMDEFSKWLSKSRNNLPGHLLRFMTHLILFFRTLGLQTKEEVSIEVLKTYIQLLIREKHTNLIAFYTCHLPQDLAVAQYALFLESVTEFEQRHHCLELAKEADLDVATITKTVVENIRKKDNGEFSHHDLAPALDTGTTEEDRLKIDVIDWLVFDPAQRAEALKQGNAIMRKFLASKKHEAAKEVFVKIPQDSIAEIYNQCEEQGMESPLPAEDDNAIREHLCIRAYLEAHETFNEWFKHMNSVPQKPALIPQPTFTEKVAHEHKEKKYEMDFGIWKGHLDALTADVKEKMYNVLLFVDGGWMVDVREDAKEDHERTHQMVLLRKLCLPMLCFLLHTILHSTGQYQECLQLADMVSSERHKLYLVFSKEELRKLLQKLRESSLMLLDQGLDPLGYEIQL"}, "[3]": {"biological_target": "T3, LacI-CFP-Nup50 (human, UniProt Q9UKX7 1-468)", "T3 sequence": "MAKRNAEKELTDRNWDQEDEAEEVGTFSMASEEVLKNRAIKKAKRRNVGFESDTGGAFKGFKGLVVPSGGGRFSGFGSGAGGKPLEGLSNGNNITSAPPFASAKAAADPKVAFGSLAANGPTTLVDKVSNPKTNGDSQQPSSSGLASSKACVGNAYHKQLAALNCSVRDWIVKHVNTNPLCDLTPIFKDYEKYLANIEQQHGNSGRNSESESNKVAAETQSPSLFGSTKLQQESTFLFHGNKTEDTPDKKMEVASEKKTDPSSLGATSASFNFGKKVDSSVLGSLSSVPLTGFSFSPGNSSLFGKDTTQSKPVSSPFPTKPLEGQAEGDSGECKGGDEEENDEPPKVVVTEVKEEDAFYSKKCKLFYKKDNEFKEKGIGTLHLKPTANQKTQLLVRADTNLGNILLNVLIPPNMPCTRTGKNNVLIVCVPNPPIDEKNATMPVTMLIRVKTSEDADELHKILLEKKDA"}},
  "data": [
    {"binder": "B1", "values": [
      {"measurement": "percent of transfected cells showing colocalization", "setting": "[1]", "result": 86, "unit": "%"},
      {"measurement": "percent of transfected cells showing colocalization", "setting": "[2]", "result": 88, "unit": "%"},
      {"measurement": "percent of transfected cells showing colocalization", "setting": "[3]", "result": 32, "unit": "%"}
    ]}
  ]
}
